# Data taken from the supplement of paper PMC12042874.
# ± gives the uncertainty stated by the source.
# Experiment: amyloid nucleation score (Sup35N fusion, yeast selection) (log enrichment); library NNK2; higher = more nucleation; inactive = no reads after selection
# In short: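 Sup35N fusions to peptides of 20 random codons were expressed in psi-negative yeast, induced 24 hours with 100 μM copper sulfate, and grown 7 days at 30°C on medium lacking adenine and uracil. Input and output plasmid inserts were sequenced by Illumina. The nucleation score is the DiMSum log enrichment of output over input reads, centred on the mode score of non-aggregating sequences. Sequences with under 100 input reads were excluded.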
row,Substance,amyloid nucleation score
1,KLVMFVGIFSNT,6.39 ± 0.085
2,GCFPSLWWLLPGCFACYSLR,0.721 ± 0.8
3,TTEWFHESFREQFVMESFVS,-1.26 ± 0.41
4,KERELSTTECCTILCSVLFY,6.852 ± 0.059
5,IKDKSHLRRIVLVTEYTRRD,0.179 ± 0.34
6,DPYYLKGYCVWEEYSWCPS,-0.749 ± 0.55
7,PFDTTCLYRYYSNFYPS,1.73 ± 0.19
8,WYWPCKGTREFKFNLYECSG,0.517 ± 0.41
9,TGVLCGSYFFWLF,5.15 ± 0.058
10,IPAKGRNSHSVSCFF,-1.07 ± 0.63
11,VYRFSAAARLDWIDRVNLCN,0.868 ± 0.58
12,DRIYNVGRSRTGRSLFYSPV,-1.19 ± 0.38
13,CDKDMRILHMYGLEASEGVY,0.526 ± 0.26
14,YNAWSSWYLGVLRPIGCCNG,9.703 ± 0.046
15,RLRQEYGLLLRRGKSVP,0.252 ± 0.35
16,SNYVY,-0.161 ± 1.1
17,FMYGTDSFGL,-1.08 ± 0.78
18,NSKVFS,0.011 ± 1.1
19,TCTQPFLVGCVERSLYES,-0.317 ± 0.28
20,VLTNKLQVTVCLLC,8.448 ± 0.046
21,ISEIQDLLGSALTH,2.09 ± 0.079
22,SGYVRCLSAYDFLVNGLPML,0.519 ± 0.31

row,Substance,amyloid nucleation score
1,CFCLWGLDDLVLGLGSTMRF,3.16 ± 0.057
2,SSSRGRVCP,0.012 ± 0.63
3,GHAIWSSIVFVGWNLRGDS,0.065 ± 0.46
4,CLRYGISRWLRLFRINNVVE,0.046 ± 0.34
5,VENRMVVLRSSIAIWVSRTV,0.955 ± 0.34
6,CGLCMEGYSHEMIDRLSSIS,0.227 ± 0.56
7,SCCLLPKYELRIIYCASRRK,-0.324 ± 1.1
8,LVWLKQGGTISMLMTCHLFA,0.477 ± 0.52
9,LYRVLNTVHVSHLQTIRP,-0.064 ± 1.1
10,VNAVSKGTCLLIWFRDFVAY,-0.113 ± 1.1
11,NVIVFRMGCRILNWGAQYGR,6.44 ± 0.082
12,KVFRSVGMFVCP,1 ± 0.29
13,SRQVTSCVVRRSQCIWSG,1.2 ± 0.27
14,PPYALDVTFVMRPKLSSR,1.21 ± 0.23
15,IRWFTEKISDKHLTGCRGLT,0.345 ± 0.45
16,LWAGDLFDRGP,0.709 ± 0.66
17,MTCRMCGADCPLA,0.539 ± 0.66
18,ILTGILSLVAYASSPGAPCG,2.45 ± 0.22
19,CWQMRGKLFHS,0.983 ± 0.14
20,GYRSIFLLFFPADHPLHTIY,-0.064 ± 1.1
21,SRSQPVICWNTWFVTWYESS,8.914 ± 0.075
22,GYSFRYTFCSHSGDVAVVSK,-0.739 ± 1

row,Substance,amyloid nucleation score
1,CVSGNMYRLGVINW,0.156 ± 0.29
2,CEALQSW,0.699 ± 0.34
3,DIMLAPHNSVDNGSRKEYGA,0.424 ± 0.64
4,VYIWSCCVKSFESSTFDDDN,7.972 ± 0.074
5,LIADSCFFIQGDHPMLSELY,0.888 ± 0.32
6,CPNLNTFTLFPELGNLYLHR,0.329 ± 0.8
7,GSCNVMGRCRIFGLGFWGIV,inactive
8,WAQSNISETSYHVGSLLSVA,0.016 ± 0.32
9,FFCTQRFSVCVLGVHKLESL,4.26 ± 0.048
10,IMNRSSSG,1.03 ± 0.36
11,LMILRRVVKEPESANKFCGY,inactive
12,GFCKEYGEVLIIRLSDSCCD,-0.393 ± 0.56
13,CCPEHRNRAGNNDFWSARTQ,0.392 ± 0.57
14,YFRHVVAGHLRCCLLVSARD,2.7 ± 0.13
15,NEQIW,0.023 ± 0.39
16,SEILWKTWNRFKPCFSRQYG,-0.675 ± 0.78
17,MCRFVLSASCFMYIEHRYGR,0.734 ± 0.81
18,TTLYGGAFIGIGYVGRHTEN,3.21 ± 0.15
19,LRLTRVYSSYRESVKKKI,0.418 ± 0.21
20,PESYVGRSLSPTVLVMWKSD,0.102 ± 1.1
21,FRVMSRVWTTEESAFLKLLC,-0.94 ± 0.63
22,GFWVWMWPRSHCAGGPSLDL,1.13 ± 0.4

row,Substance,amyloid nucleation score
1,QTNST,0.526 ± 0.57
2,REYASILMYRNCMCH,0.007 ± 0.5
3,AFASYIKNDPPGEVPMAEL,0.258 ± 0.24
4,KNNVCSHIPNLGSYYLF,0.736 ± 0.8
5,LIFNYRVFLSFSW,-0.356 ± 1.1
6,SLMLGVYHLFTCGTQTRCYS,-0.71 ± 1
7,QAFVNFNIIYDV,5.959 ± 0.053
8,LWVFLLAWSAQLYDWSMATR,-0.12 ± 0.79
9,SVICELLQDRFTSLHGMYGY,0.119 ± 0.31
10,NLNFDPGVLF,inactive
11,MLQPPPNESVSIILLKGSPA,5.165 ± 0.042
12,KLSSKDHRFYKVSMKRV,0.247 ± 0.8
13,SRSVNCAVFNADSLCPKLWL,4.81 ± 0.11
14,FTFYR,1.08 ± 0.41
15,AIEYPYRCYRDVAWLRALAS,0.582 ± 0.28
16,ALDHSV,-0.271 ± 1
17,KYDVEGMQVSRNFY,-0.424 ± 0.79
18,LYYFGTGAICMLLNWICPGC,inactive
19,HIVEIGALYRAIYLKVKWRQ,2.62 ± 0.21
20,CLCGTFVSVSPIGYRGQWGG,-0.467 ± 0.76
